Among the data in US20240115497A1, “INHALABLE PHARMACEUTICAL POWDER FORMULATION AND PREPARATION METHOD THEREFOR” (ZHEJIANG CUIZE PHARMACEUTICAL TECHNOLOGY CO., LTD., priority 2021, published 2024) are Specific surface area and bioavailability values, retold here.

Data set [1] in a line: Specific surface area by inverse gas chromatography-surface energy analyzer. It is filed as physicochemical. From the text: The specific surface areas of the bulk drug semaglutide, excipient leucine and powder formulation were respectively detected by an inverse gas chromatography-surface energy analyzer.
For data set [2] the following is noted: injectable and oral formulations; cited from earlier work.

Compound `CC(C)C[C@H](N)C(=O)O` [Excipient leucine, leucine] yielded a Specific surface area in data set [1] of 0.506 m^2/g.

In turn, Semaglutide [Bulk drug semaglutide] showed a Specific surface area in data set [1] of 1.816 m^2/g. Moreover, in data set [2], the bioavailability entry is recorded as “about 1%”.
